T1: Eg5 (UniProt P52732 1-1056)
T1 sequence: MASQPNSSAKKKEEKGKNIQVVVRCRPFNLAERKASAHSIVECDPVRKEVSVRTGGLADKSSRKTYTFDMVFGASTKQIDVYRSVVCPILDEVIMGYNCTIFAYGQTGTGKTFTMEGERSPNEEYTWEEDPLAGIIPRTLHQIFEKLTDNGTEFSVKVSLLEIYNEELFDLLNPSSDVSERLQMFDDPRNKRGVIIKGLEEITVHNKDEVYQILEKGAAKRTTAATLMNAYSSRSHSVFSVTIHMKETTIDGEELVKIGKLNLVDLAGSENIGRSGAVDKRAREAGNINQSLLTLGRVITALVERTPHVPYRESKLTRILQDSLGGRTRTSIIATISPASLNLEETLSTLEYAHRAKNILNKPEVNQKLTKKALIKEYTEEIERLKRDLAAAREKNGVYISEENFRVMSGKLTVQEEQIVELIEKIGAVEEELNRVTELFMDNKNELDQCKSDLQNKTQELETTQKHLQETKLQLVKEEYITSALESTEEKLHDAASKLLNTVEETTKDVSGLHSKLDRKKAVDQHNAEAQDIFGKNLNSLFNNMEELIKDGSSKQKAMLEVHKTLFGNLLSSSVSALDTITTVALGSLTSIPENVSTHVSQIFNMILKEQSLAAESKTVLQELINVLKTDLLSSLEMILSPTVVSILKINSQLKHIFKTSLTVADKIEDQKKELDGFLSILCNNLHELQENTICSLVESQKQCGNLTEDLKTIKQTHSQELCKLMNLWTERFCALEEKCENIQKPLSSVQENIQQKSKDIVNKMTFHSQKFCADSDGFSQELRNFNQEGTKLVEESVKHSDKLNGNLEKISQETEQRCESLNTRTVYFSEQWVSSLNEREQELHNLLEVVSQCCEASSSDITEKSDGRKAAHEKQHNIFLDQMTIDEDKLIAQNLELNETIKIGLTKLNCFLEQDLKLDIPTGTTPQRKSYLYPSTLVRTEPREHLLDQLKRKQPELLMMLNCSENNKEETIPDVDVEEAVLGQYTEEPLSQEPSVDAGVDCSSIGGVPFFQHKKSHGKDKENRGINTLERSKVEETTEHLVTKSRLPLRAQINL


Experiments:
Eg5 [1] = target: Eg5 (UniProt P52732)
Eg5 [2] = target: T1, Eg5

| binding relative to WT (% less than WT) (Eg5 [1]) | binding relative to WT (Eg5 [2]) [% less than WT] | Molecule |
| --- | --- | --- |
| 41 |  | GFP-TPX2-2D (from UniProt Q9ULW0 1-747) (natural protein) |
|  | 41 | GFP-TPX2-2A (S121/125A) (natural protein) MSQVKSSYSYDAPSDFINFSSLDDEGDTQNIDSWFEEKANLENKLLGKNGTGGLFQGKTPLRKANLQQAIVTPLKPVDNTYYKEAEKENLVEQSIPSNACSSLEVEAAISRKTPAQPQRRALRLAAQKDLEQKEKHHVKMKAKRCATPVIIDEILPSKKMKVSNNKKKPEEEGSAHQDTAEKNASSPEKAKGRHTVPCMPPAKQKFLKSTEEQELEKSMKMQQEVVEMRKKNEEFKKLALAGIGQPVKKSVSQVTKSVDFHFRTDERIKQHPKNQEEYKEVNFTSELRKHPSSPARVTKGCTIVKPFNLSQGKKRTFDETVSTYVPLAQQVEDFHKRTPNRYHLRSKKDDINLLPSKSSVTKICRDPQTPVLQTKHRARAVTCKSTAELEAEELEKLQQYKFKARELDPRILEGGPILPKKPPVKPPTEPIGFDLEIEKRIQERESKKKTEDEHFEFHSRPCPTKILEDVVGVPEKKVLPITVPKSPAFALKNRIRMPTKEDEEEDEPVVIKAQPVPHYGVPFKPQIPEARTVEICPFSFDSRDKERQLQKEKKIKELQKGEVPKFKALPLPHFDTINLPEKKVKNVTQIEPFCLETDRRGALKAQTWKHQLEEELRQQKEAACFKARPNTVISQEPFVPKKEKKSVAEGLSGSLVQEPFQLATEKRAKERQELEKRMAEVEAQKAQQLEEARLQEEEQKKEELARLRRELVHKANPIRKYQGLEIKSSDQPLTVPVSPKFSTRFHC |
